Experimental data from patent USRE45968 (SIGMA TAU INDUSTRIE FARMACEUTICHE RIUNITE S PA, dated 2016).
Changes are numbered by the printed parent chain.

T1: Human CEA protein, purified from colon carcinoma and liver metastases (human, UniProt P06731 35-685, limits assumed)
T1 construct: Bought; Biotinylated for the selections; also called carcino-embryonic antigen
T1 sequence (looked up): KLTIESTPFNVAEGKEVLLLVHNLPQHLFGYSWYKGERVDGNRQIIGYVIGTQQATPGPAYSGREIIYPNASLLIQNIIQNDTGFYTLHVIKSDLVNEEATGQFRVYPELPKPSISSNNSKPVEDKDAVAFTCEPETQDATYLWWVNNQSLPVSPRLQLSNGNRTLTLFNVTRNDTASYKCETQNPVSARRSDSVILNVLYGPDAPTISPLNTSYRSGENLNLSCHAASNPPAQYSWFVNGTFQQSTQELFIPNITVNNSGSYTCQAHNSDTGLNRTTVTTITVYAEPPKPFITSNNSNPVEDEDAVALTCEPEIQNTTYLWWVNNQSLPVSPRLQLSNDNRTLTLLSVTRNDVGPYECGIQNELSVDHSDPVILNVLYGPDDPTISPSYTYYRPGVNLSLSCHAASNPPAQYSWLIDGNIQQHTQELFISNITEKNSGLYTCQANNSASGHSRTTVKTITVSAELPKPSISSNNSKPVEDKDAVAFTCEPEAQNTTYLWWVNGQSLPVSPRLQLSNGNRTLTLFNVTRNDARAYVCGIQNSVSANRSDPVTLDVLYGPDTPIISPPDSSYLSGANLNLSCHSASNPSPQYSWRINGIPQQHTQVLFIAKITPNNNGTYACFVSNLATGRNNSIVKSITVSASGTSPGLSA

B1: MB5/C′1 scFv antibody, soluble form (scFv)
scFv: RTMEEVQLQESGAEVKKPGASVKVSCKASGYTFTASYMHWVRQAPGQGLEWMGWFNPNSGGTNYAQKFQGRVTMTGDTSTSTGYMELSRLTSDDAAVYYCARDRASAMGVWGQGTLVTVSSGGGGSGGGGSGGGGSQSALTQPASVSGSPGQSITISCTGTSSDVGGYNYVSWYQQHPGKAPKLMIYDVSHRPSGISNRFSGSKSGNTASLTISRLQAEDEADYYCSSYTSSNTFIFGTGTQLTVLGAA
notes: domain: first two amino acids of the mature AP protein; cloned in pKM16 and produced in soluble form; also called MBB5/C′1; not shown: FLAG/His-tail at the carboxyl-terminus (pKM16)
B2: MB5/C′3 scFv antibody, soluble form (scFv)
scFv: RTMEQVQLVQSGAEVKKPGASVKVSCKASGYTFTASYMHWVRQAPGQGLEWMGWFNPNSGGTNYAQKFQGRVTMTGDTSTSTGYMELSRLTSDDAAVYYCARDRASAMGVWGQGTLVTVSSGGGGSGGGGSGGGGSQSALTQPASVSGSPGQSITISCTGTSSDVGGYNYVSWYQQHPGKAPKLMIYDVTNRPSGVSSRFSGSKSGNTASLTISGLQTEDEADYYCNSFTSSNTYVFGTGTQLTVLGAA
notes: domain: first two amino acids of the mature AP protein; cloned in pKM16 and produced in soluble form; not shown: FLAG/His-tail at the carboxyl-terminus (pKM16)
B3: CB37/3B scFv antibody, soluble form (scFv)
scFv: RTMEEVQLVQSGGGLIQPGGSLRLSCVASEFNVRSNYMSWVRQAPGKGLEWVSVMYDGGSTYYADSVKGRFTISRDNSKNTVYLQMNSLRAEDTAVYYCARGGLGLPTIAPWEIWGQGTMVTVSSGGGGSGGGGSGGGGSSYVLTQPPSVSVAPGKTATITCAGNNIGSNSVYWYQQKPGLAPVLVVYDDRDRPSGIHERFSGSKSGNTATLTISRVEAGDEADYSCQVWDPSSDHLYVFGTGTQLTVLGAA
notes: domain: first two amino acids of the mature AP protein; not shown: FLAG/His-tail at the carboxyl-terminus (pKM16)
B4: CB37/9C scFv antibody, soluble form (scFv)
scFv: B3 scFv with P111S, I197L, H198P, E199G
notes: as for B2

Key:
[1] = molecular target: T2, GST-fused MUC1 recombinant protein, containing a 107-aa MUC1 sequence, containing 5.3 repeats (UniProt P08515 1-218 = GST; P15941 126-232); assay: Surface Plasmon Resonance (Biacore), soluble scFv
T2 construct: Biotinylated for the selections; also called Recombinant MUC1 protein; MUC1 tumor antigen

[2] = molecular target: T1, Human CEA protein, purified from colon …; assay: Surface Plasmon Resonance (Biacore), soluble scFv

Row | Binder | Kd [1] | Kd [2]
1 | B1 | 9.46 nM | –
2 | B2 | 23.1 nM | –
3 | B3 | – | 3.66 nM
4 | B4 | – | 1.42 nM
